Test system: corneal epithelial cells
Assay: modified Boyden chamber migration assay
Type: cell-based
Conditions: 250 ng/ml in lower well
Protocol: In order to further evaluate the chemotactic effect of GDNF on corneal epithelial cells, a modified Boyden chamber assay was used. 4×10^5 cells from the either primary cultured cells or the corneal epithelial cell line were seeded onto tissue culture inserts containing a polyethylene terephthalate (PET) filter having a pore size of 8 μm (Falcon). Within 4 hours after seeding most cells had attached to the filter and formed a semiconfluent monolayer. The medium was then changed to SHEM without additives in the upper well and SHEM with GDNF (250 ng/ml) in the lower well. After 24 h of culture cells were removed from the surface of the insert by gentle scrubbing with a rubber policeman. Cells on the bottom of the insert (which had migrated through the filter) were fixed with −20° C. methanol and stained with crystal violet. The entire surface of the filters was screened for cells under the microscope.

B1: GDNF: recombinant human GDNF having the amino acid sequence of human wild-type GDNF (GenBank L19063, L15306) (protein)
chain: SPDKQMAVLPRRERNRQAAAANPENSRGKGRRGQRGKNRGCVLTAIHLNVTDLGLGYETKEELIFRYCSGSCDAAETTYDKILKNLSRNRRLVSDKVGQACCRPIAFDDDLSFLDDNLVYHILRKHSAKRCGCI
increase of number of migrated cells over control: more than 6 fold
number of cells migrated through the filter (8 μm pore size, 24 h, control 19±6.8): 117±37.6

Source: patent US20030166537A1, “Use of GDNF for treating corneal defects” (Biopharm Gesellschaft Zur Biotechnologischen Entwicklung …, priority 1999, published 2003)
